Measured values: US20210253734A1

Tests used:
[1] = biological target: human Trypsin (Sigma) (human) (UniProt P07477); assay: cell-based or functional assay
[2] = biological target: AS-SPIK (Abnormal Secreted serine protease inhibitor Kazal), purified or partially purified from the medium of S2-3 cells (human) (UniProt P00995); assay: cell-based or functional assay

Row | inhibition of trypsin digestion of 1 uM BML (Boc-Gln-Ala-Arg-AMC) after 60 minutes, 3 nM AS-SPIK and 2 ng/ml trypsin [1] [%] | restoration of Trypsin activity (inhibition of AS-SPIK activity) at 60 minutes, 1 ug/ml IM-CA22 pre-incubated with 3 nM AS-SPIK [2] [%] | Molecule
1 | 70 |  | AS-SPIK (Abnormal Secreted serine protease inhibitor Kazal), purified or partially purified from the medium of S2-3 cells (from UniProt P00995 24-79)
2 |  | > 60 | monoclonal antibody IM-CA22 (antibody, V domains shown) VH: QIQLQQSGPELVKPGTSVKLSCKASGYTFTDYYINWVKQRPGQGLEWIGWIYPGSGNPIYNENFKDKATLTVDTSSTTAYLQLSSLTSEDSAVYFCAREWGCAMDSWGQGTSVTVSS VL: DIVMTQSPSSLSVSTGEKVTMSCKSSQSLLNSGNQKNYLAWYQQKPGQSPKLLIYGASTRESGVPDRFTGSGSGTEFTLTISSVQAEDLAVYYCQSDYSHPYTFGGGTKLEIK
